Assay results published in US20230112123A1.

Assays:
[1] = biological target: human CD70 (human) (UniProt P32970); experiment: FACS binding; U266 cells
[2] = biological target: human CD70 (human) (UniProt P32970); experiment: FACS binding; CHO-CD70 cells
[3] = biological target: human CD70 (human) (UniProt P32970); experiment: FACS binding; Raji cells

Chain of human CD70 (human) (P32970 whole entry): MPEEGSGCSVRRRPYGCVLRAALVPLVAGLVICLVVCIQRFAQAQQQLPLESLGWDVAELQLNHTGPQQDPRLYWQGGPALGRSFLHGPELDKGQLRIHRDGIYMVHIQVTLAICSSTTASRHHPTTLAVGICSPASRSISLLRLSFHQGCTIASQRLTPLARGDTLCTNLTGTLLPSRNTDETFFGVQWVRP

EC50 [1]	EC50 [2]	EC50 [3]	Substance
0.0715 µg/mL	0.501 µg/mL	–	IMM40C
0.671 nM	–	2.16 nM	Cusatuzumab
